According to patent publication US20220073581A1 (UCB, published 2022):

T1: IL-2-Rβ (IL-2 receptor β chain, R&D Systems) (UniProt P14784 27-239)
T1 construct: also called IL-2-sRβ
T1 sequence (looked up): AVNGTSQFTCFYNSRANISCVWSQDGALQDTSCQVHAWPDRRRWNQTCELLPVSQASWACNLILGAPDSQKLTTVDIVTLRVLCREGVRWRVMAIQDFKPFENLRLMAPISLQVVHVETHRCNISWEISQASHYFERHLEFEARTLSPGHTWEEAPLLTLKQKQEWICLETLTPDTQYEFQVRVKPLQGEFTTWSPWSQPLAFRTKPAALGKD


Columns and labels:
Lysozyme (R&D Systems) = Lysozyme (R&D Systems) (UniProt P00698 19-147); assay: SPR, Fab construct captured via anti-human F(ab)2, lysozyme 0.1-10 nM, Langmuir model
Method: Briefly, the carboxymethyl dextran surface was activated with a fresh 1:1 (v/v) mixture of 50 mM N-hydroxysuccimide and 200 mM 1-ethyl-3-(3-dimethylaminopropyl)-carbodiimide for 5 minutes at a flow rate of 10 μL/min. The anti-human F(ab)₂ in 10 mM acetate pH 5.0 buffer was covalently coupled to chips at 50 μg/mL in a 10 minute pulse at the same flow rate. Finally the surface was deactivated with a 10 minute pulse of 1 M ethanolamine.HCl pH 8.5. A reference flow cell was prepared on the chip by omitting the protein from the above procedure.
A typical SPR cycle comprised a flow rate of 10 μL/min with HBS-EP as running buffer and diluted supernatant was injected for 1 min to capture the antibody/Fab fusion protein. This was followed by a 30 μl injection of the diluted cognate ligand or receptor or buffer control. The subsequent dissociation phase was monitored for at least 3 min. […] In some experiments a specificity control cycle was included where the cognate receptor/ligand (the insert portion of the antibody/Fab fusion protein) was pre-mixed with a 2-fold molar excess of its binding partner. Each cycle terminated with a regeneration step comprising two 10 μL injections of 40 mM HCl interspersed with a 5 μL injection of 5 mM NaOH.
Following capture of the Fab construct, 90 μl of the cognate ligand or buffer control was injected followed by a dissociation phase of 180 sec. A ligand binding over a range of concentrations (0.1, 0.2, 0.5, 1, 2, 5, & 10 nM) was tested. Sensorgrams were corrected for drift by subtraction of a zero ligand sensorgram and for non-specific interaction by subtraction of the wild type Fab corrected sensorgram. Affinity constants were calculated from separate dissociation and association rate constants that were fitted to the corrected sensorgrams using the Langmuir model of the BIAevaluation software (version 4.1.1).

human recombinant IL-17A = human recombinant IL-17A (human, UniProt Q16552 24-155, limits assumed); assay: cell-based or functional assay
[1] = biological target: T1, IL-2-Rβ (IL-2 receptor β chain, R&D …); assay: SPR (Biacore), fusion captured on anti-human F(ab)2, 100 nM IL-2-Rβ injected

Binder	Kd (Lysozyme (R&D Systems)) [nM]	binding result [1]	further results
CA645/VHH D3L11Fwk3 (CA645 Fab with anti-lysozyme VHH D3L11 inserted into framework 3 of the light chain) (bispecific antibody, also called Antibody: CA645 Fab, Framework 3 Insert: VHH D3L11) heavy: EVQLLESGGGLVQPGGSLRLSCAVSGIDLSNYAINWVRQAPGKGLEWIGIIWASGTTFYATWAKGRFTISRDNSKNTVYLQMNSLRAEDTAVYYCARTVPGYSTAPYFDLWGQGTLVTVSSASTKGPSVFPLAPSSKSTSGGTAALGCLVKDYFPEPVTVSWNSGALTSGVHTFPAVLQSSGLYSLSSVVTVPSSSLGTQTYICNVNHKPSNTKVDKKVEPKSC light: DIQMTQSPSSVSASVGDRVTITCQSSPSVWSNFLSWYQQKPGKAPKLLIYEASKLTSGVPSRFSGSGSGSGGGGSDVQLVESGGGSVQAGGSLRLSCAASGSTDSIEYMTWFRQAPGKAREGVAALYTHTGNTYYTDSVKGRFTISQDKAKNMAYLRMDSVKSEDTAIYTCGATRKYVPVRFALDQSSYDYWGQGTQVTVSSGGGGSGGGGSGGGGSTDFTLTISSLQPEDFATYYCGGGYSSISDTTFGGGTKVEIKRTVAAPSVFIFPPSDEQLKSGTASVVCLLNNFYPREAKVQWKVDNALQSGNSQESVTEQDSKDSTYSLSSTLTLSKADYEKHKVYACEVTHQGLSSPVTKSFNRGEC	0.48	–	–
HyHEL5/VHH15Fwk3 (anti-lysozyme HyHEL5 Fab with anti-IL-6 VHH15 inserted into framework 3 of the light chain) (bispecific antibody, also called Antibody: HyHEL5 Fab, Framework 3 Insert: VHH15) heavy: EVQLQQSGAELMKPGASVKISCKASGYTFSDYWIEWVKQRPGHGLEWIGEILPGSGSTNYHERFKGKATFTADTSSSTAYMQLNSLTSEDSGVYYCLHGNYDFDGWGQGTTLTVSSASTKGPSVFPLAPSSKSTSGGTAALGCLVKDYFPEPVTVSWNSGALTSGVHTFPAVLQSSGLYSLSSVVTVPSSSLGTQTYICNVNHKPSNTKVDKKVEPKSC light: DIVLTQSPAIMSASPGEKVTMTCSASSSVNYMYWYQQKSGTSPKRWIYDTSKLASGVPVRFSGSGSGSGGGGSQVQLVESGGGSVQAGGSLRLSCVAASGYTGCTYDMRWYRQAPGKEREFVSGIDSDGRATYADSVKGRFTISQSNAKIAVYLQMDSLKLEDTAMYYCNLQCLRYPGEYYWGQGTQVTVSSGGGGSGGGGSGGGGSTSYSLTISSMETEDAATYYCQQWGRNPTFGGGTKLEIKRTVAAPSVFIFPPSDEQLKSGTASVVCLLNNFYPREAKVQWKVDNALQSGNSQESVTEQDSKDSTYSLSSTLTLSKADYEKHKVYACEVTHQGLSSPVTKSFNRGEC	0.31	–	–
CA645 Fab-Fwk3 CA497 dsscFv (vLvH) (bispecific antibody) heavy: EVQLLESGGGLVQPGGSLRLSCAVSGIDLSNYAINWVRQAPGKGLEWIGIIWASGTTFYATWAKGRFTISRDNSGGGGSGGGGSAIQLTQSPSSLSASVGDRVTITCKASESVSSSMYSYMHWYQQKPGKAPKLLIYRASNLESGVPSRFSGSGSGTDFTLTISSLQPEDFATYYCQQSWTAPRTFGCGTKVEIKGGGGSGGGGSGGGGSEVQLVESGGGLVKPGGSLRLSCAASGVIFSDYYMAWVRQAPGKCLEWVASINFNADISYYRESVKGRFTISRDDSKNTLYLQMNSLKTEDTAVYYCTTDANRQNYDWFAYWGQGTLVTVSSGGGGSGGGGSKNTVYLQMNSLRAEDTAVYYCARTVPGYSTAPYFDLWGQGTLVTVSSASTKGPSVFPLAPSSKSTSGGTAALGCLVKDYFPEPVTVSWNSGALTSGVHTFPAVLQSSGLYSLSSVVTVPSSSLGTQTYICNVNHKPSNTKVDKKVEPKSC light: DIQMTQSPSSVSASVGDRVTITCQSSPSVWSNFLSWYQQKPGKAPKLLIYEASKLTSGVPSRFSGSGSGTDFTLTISSLQPEDFATYYCGGGYSSISDTTFGGGTKVEIKRTVAAPSVFIFPPSDEQLKSGTASVVCLLNNFYPREAKVQWKVDNALQSGNSQESVTEQDSKDSTYSLSSTLTLSKADYEKHKVYACEVTHQGLSSPVTKSFNRGEC	–	–	IL-17A EC50 (ng/ml), neutralisation of IL-17A (IL-6 secretion by Hela cells), with HSA (human recombinant IL-17A): 10.8 ng/mL; IL-17A EC50 (ng/ml), neutralisation of IL-17A (IL-6 secretion by Hela cells), without HSA (human recombinant IL-17A): 10.5 ng/mL
CA645 Fab-Fwk3 CA497 dsscFv (vHvL) (bispecific antibody) heavy: EVQLLESGGGLVQPGGSLRLSCAVSGIDLSNYAINWVRQAPGKGLEWIGIIWASGTTFYATWAKGRFTISRDNSGGGGSGGGGSEVQLVESGGGLVKPGGSLRLSCAASGVIFSDYYMAWVRQAPGKCLEWVASINFNADISYYRESVKGRFTISRDDSKNTLYLQMNSLKTEDTAVYYCTTDANRQNYDWFAYWGQGTLVTVSSGGGGSGGGGSGGGGSAIQLTQSPSSLSASVGDRVTITCKASESVSSSMYSYMHWYQQKPGKAPKLLIYRASNLESGVPSRFSGSGSGTDFTLTISSLQPEDFATYYCQQSWTAPRTFGCGTKVEIKGGGGSGGGGSKNTVYLQMNSLRAEDTAVYYCARTVPGYSTAPYFDLWGQGTLVTVSSASTKGPSVFPLAPSSKSTSGGTAALGCLVKDYFPEPVTVSWNSGALTSGVHTFPAVLQSSGLYSLSSVVTVPSSSLGTQTYICNVNHKPSNTKVDKKVEPKSC light: DIQMTQSPSSVSASVGDRVTITCQSSPSVWSNFLSWYQQKPGKAPKLLIYEASKLTSGVPSRFSGSGSGTDFTLTISSLQPEDFATYYCGGGYSSISDTTFGGGTKVEIKRTVAAPSVFIFPPSDEQLKSGTASVVCLLNNFYPREAKVQWKVDNALQSGNSQESVTEQDSKDSTYSLSSTLTLSKADYEKHKVYACEVTHQGLSSPVTKSFNRGEC	–	–	IL-17A EC50 (ng/ml), neutralisation of IL-17A (IL-6 secretion by Hela cells), with HSA (human recombinant IL-17A): 8.7 ng/mL; IL-17A EC50 (ng/ml), neutralisation of IL-17A (IL-6 secretion by Hela cells), without HSA (human recombinant IL-17A): 10.6 ng/mL

More lines, main results first:

Kd (Lysozyme (R&D Systems)) [nM]	binding result [1]	Binder	further results
0.026	–	HyHEL5/VHH D3L11Fwk3 (anti-lysozyme HyHEL5 Fab with anti-lysozyme VHH D3L11 inserted into framework 3 of the light chain) (bispecific antibody, also called Antibody: HyHEL5 Fab, Framework 3 Insert: VHH D3L11) heavy: EVQLQQSGAELMKPGASVKISCKASGYTFSDYWIEWVKQRPGHGLEWIGEILPGSGSTNYHERFKGKATFTADTSSSTAYMQLNSLTSEDSGVYYCLHGNYDFDGWGQGTTLTVSSASTKGPSVFPLAPSSKSTSGGTAALGCLVKDYFPEPVTVSWNSGALTSGVHTFPAVLQSSGLYSLSSVVTVPSSSLGTQTYICNVNHKPSNTKVDKKVEPKSC light: DIVLTQSPAIMSASPGEKVTMTCSASSSVNYMYWYQQKSGTSPKRWIYDTSKLASGVPVRFSGSGSGSGGGGSDVQLVESGGGSVQAGGSLRLSCAASGSTDSIEYMTWFRQAPGKAREGVAALYTHTGNTYYTDSVKGRFTISQDKAKNMAYLRMDSVKSEDTAIYTCGATRKYVPVRFALDQSSYDYWGQGTQVTVSSGGGGSGGGGSGGGGSTSYSLTISSMETEDAATYYCQQWGRNPTFGGGTKLEIKRTVAAPSVFIFPPSDEQLKSGTASVVCLLNNFYPREAKVQWKVDNALQSGNSQESVTEQDSKDSTYSLSSTLTLSKADYEKHKVYACEVTHQGLSSPVTKSFNRGEC	–
–	binds	CA645/IL-15Fwk3 with bovine long linker (Fab, also called CA645 Fab heavy chain with human IL-15 inserted into framework 3 with bovine long linker) heavy: not shown light: DIQMTQSPSSVSASVGDRVTITCQSSPSVWSNFLSWYQQKPGKAPKLLIYEASKLTSGVPSRFSGSGSGTDFTLTISSLQPEDFATYYCGGGYSSISDTTFGGGTKVEIKRTVAAPSVFIFPPSDEQLKSGTASVVCLLNNFYPREAKVQWKVDNALQSGNSQESVTEQDSKDSTYSLSSTLTLSKADYEKHKVYACEVTHQGLSSPVTKSFNRGEC	–
–	binds	CA645/IL-15Fwk3 with bovine short linker (Fab, also called CA645 Fab heavy chain with human IL-15 inserted into framework 3 with bovine short linker) heavy: not shown light: DIQMTQSPSSVSASVGDRVTITCQSSPSVWSNFLSWYQQKPGKAPKLLIYEASKLTSGVPSRFSGSGSGTDFTLTISSLQPEDFATYYCGGGYSSISDTTFGGGTKVEIKRTVAAPSVFIFPPSDEQLKSGTASVVCLLNNFYPREAKVQWKVDNALQSGNSQESVTEQDSKDSTYSLSSTLTLSKADYEKHKVYACEVTHQGLSSPVTKSFNRGEC	–
–	binds	CA645/IL-15Fwk3 with 2xG4S linker (Fab, also called CA645 Fab heavy chain with human IL-15 inserted into framework 3 with 2xG4S linker) heavy: not shown light: DIQMTQSPSSVSASVGDRVTITCQSSPSVWSNFLSWYQQKPGKAPKLLIYEASKLTSGVPSRFSGSGSGTDFTLTISSLQPEDFATYYCGGGYSSISDTTFGGGTKVEIKRTVAAPSVFIFPPSDEQLKSGTASVVCLLNNFYPREAKVQWKVDNALQSGNSQESVTEQDSKDSTYSLSSTLTLSKADYEKHKVYACEVTHQGLSSPVTKSFNRGEC	–
